Patent US20240207432A1 (BIOSION, published 2024)
Substitutions are numbered along the chain they refer to.

T1: human TROP2-his protein (human, UniProt P09758 27-274)
T1 construct: Biotin-labelled in the ELISAs, unlabelled analyte in Biacore; also called biotin-labeled human TROP2-his protein; biotin human Trop2-his
T1 sequence: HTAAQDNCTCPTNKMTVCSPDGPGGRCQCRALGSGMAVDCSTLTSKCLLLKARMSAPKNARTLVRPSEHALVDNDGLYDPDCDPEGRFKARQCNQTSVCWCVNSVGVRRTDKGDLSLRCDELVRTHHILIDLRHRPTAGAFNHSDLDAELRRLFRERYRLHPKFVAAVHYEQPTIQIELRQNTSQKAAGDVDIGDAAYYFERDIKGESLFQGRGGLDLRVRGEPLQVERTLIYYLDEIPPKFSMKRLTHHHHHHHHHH

T2: cynomolgus TROP2-his protein (cynomolgus monkey, UniProt P09758 27-272 (human entry), limits assumed)
T2 construct: no cleavage site is stated; also called Cynomolgus monkey TROP2-his protein; monkey TROP2
T2 chain: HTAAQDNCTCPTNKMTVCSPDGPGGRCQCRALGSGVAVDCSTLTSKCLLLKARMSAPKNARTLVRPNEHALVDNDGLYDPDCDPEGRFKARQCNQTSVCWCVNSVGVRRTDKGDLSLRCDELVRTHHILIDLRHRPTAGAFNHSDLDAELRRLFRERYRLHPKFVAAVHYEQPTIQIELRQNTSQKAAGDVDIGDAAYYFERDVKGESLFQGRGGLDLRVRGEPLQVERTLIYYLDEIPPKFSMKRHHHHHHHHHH

T3: full length human TROP2 on 293F-TROP2 cells (human, UniProt P09758 27-323)
T3 construct: also called 293F-TROP2 cells (clone ID #3A8); cell surface TROP2
T3 sequence: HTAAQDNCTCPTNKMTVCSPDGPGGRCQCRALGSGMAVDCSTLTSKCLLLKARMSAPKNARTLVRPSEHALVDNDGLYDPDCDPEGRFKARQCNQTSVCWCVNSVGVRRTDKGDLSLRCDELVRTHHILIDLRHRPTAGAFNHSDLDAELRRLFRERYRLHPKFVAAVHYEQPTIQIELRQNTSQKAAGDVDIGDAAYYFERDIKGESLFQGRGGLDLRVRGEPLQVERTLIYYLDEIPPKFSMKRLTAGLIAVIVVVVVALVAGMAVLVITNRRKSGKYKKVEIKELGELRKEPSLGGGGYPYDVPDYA

B1: mouse antibody A1E4F7D4 (antibody, V domains shown)
VH: QVQLQQSGAELAKPGTSVKMSCEASGYSFTTHWIHWMKQRPGQGLEWIGTIFPSNAYAVYNQKFRDRAIMTADRSSTTAYIQLTGLTSEDSAVYYCARASYFDYWGQGTTLTVSS
VL: DILLTQSPATLSVSPGERVTFSCRASQNIGTSIHWFQQRTTGSPRLLIKYASESISGIPSRFSGSGSGTDFTLHINSVESEDIAHYYCQHSHSWPFTFGSGTKLEIQ
notes: Mouse monoclonal IgG purified from hybridoma supernatant; also called Mouse A1E4F7D4
B2: mouse antibody A1E11A12D1 (antibody, V domains shown)
VH: QVQLQQSGAELARPGASVKLSCMASGYTFTTYGISWVRQRTGQGLEWIGQIYPGSDYSYCDEDFKGKATLTADKSSSTAYMQLSSLTSEDSAVYFCARASYFDYWGQGTTLTVSS
VL: DILLTQSPAILSVSPGERVSFSCRASQTIGTAIHWYQQRANGSPRLLIKYASESISGIPSRFSGSGSGTDFALSINTVESEDFAYYYCQQSNNWPFTFGGGTKLEIR
notes: Mouse monoclonal IgG purified from hybridoma supernatant
B3: mouse antibody A1H3C5H8E12 (antibody, V domains shown)
VH: QVQLQQSGAELVRPGTSVKMSCKAAGYTFTNYWIDWVKQRPGHGLEWIGNIFPGGFYTNYNEKFKGKATLTADTSSSTAYMQLSSLTSEDSAIYYCARGGVFDYWGQGTTLTVSS
VL: B2 VL with T28S, A32S, A40T, A72T, T77S, F83I, Y85D, N93S, F96Y, R107K
notes: as for B2
B4: benchmark (in house prepared sacituzumab) (antibody, human IgG1, kappa, V domains shown)
VH: SVQLQQSGSELKKPGASVKVSCKASGYTFTNYGMNWVKQAPGQGLKWMGWINTYTGEPTYTDDFKGRFAFSLDTSVSTAYLQISSLKADDTAVYFCARGGFGSSYWYFDVWGQGSLVTVSS
VL: DIQLTQSPSSLSASVGDRVSITCKASQDVSIAVAWYQQKPGKAPKLLIYSASYRYTGVPDRFSGSGSGTDFTLTISSLQPEDFAVYYCQQHYITPLTFGAGTKVEIKR
notes: also called BM; BM1
B5: mouse antibody C1B3B12D2 (antibody, V domains shown)
VH: QVQLQQSGPELVRPGTSVKMSCKAAGYTFTKFWIGWVKQRPGHGLEWIGNIYPGGAYINYNENFKGKATLTADTFSSTAYMQLNSLTSADSAIYYCAREGSSGYWGQGTTLTVSS
VL: DIVMTQSPSSLTVTAGEKVTLSCKCSQSLLNSGTQENYLTWYQQKPGQPPKMLIYWASIREPGVPDRFTGSGSGTDFTLTINNVQAEDLAVYYCQHDYSYPFTFGSGTKLEIK
notes: as for B2
B6: huA1E4F7D4-V16 (antibody, human IgG1, kappa, V domains shown)
VH: QVQLVQSGAEVKKPGASVKVSCKASGYSFTTHWIHWVRQAPGQGLEWIGTIFPSNAYAVYNQKFRDRATMTADTSISTAYIELSRLRSDDTAVYYCARASYFDYWGQGTTVTVSS
VL: EIVLTQSPATLSLSPGERATLSCRASQNIGTSIHWFQQKPGGAPRLLIKYASESISGIPSRFSGSGSGTDFTLTISSLEPEDFAVYYCQHSHSWPFTFGQGTKLEIKR
notes: Positions of the X residues are given in the claims; also called humanized antibody huA1E4F7D4-V16

What was measured:
human TROP2-his protein [1] = target: T1, human TROP2-his protein; assay: SPR Biacore T200, mAb captured on anti-mouse IgG CM5 chip, TROP2-his analyte
Procedure: (§1) Un-reacted moieties on the chip (biosensor) surface were blocked with ethanolamine. […] The antigen-antibody association kinetics was followed for 2 minutes and the dissociation kinetics was followed for 10 minutes. The association and dissociation curves were fit to a 1:1 Langmuir binding model using BIAcore evaluation software.

[2] = target: T2, cynomolgus TROP2-his protein; assay: as above
Procedure: as §1

human TROP2-his protein [3] = target: T1, human TROP2-his protein; assay: competitive ELISA: mouse A1H3C5H8E12 coated at 2 ug/mL, antibody premixed with biotin human TROP2-his; blocked: binding of TROP2-his to coated A1H3C5H8E12
Procedure: The mouse anti-TROP2 antibodies were tested for epitope binding in a competitive ELISA assay. […] ELISA plates were washed once with wash buffer (PBS+0.05% v/v Tween-20, PBST) and then blocked with 200 μl blocking buffer (5% w/v non-fatty milk in PBST) for 2 hours at 37° C. While blocking, the anti-TROP2 antibodies or controls were diluted with biotin labeled human TROP2-his protein (SEQ ID NO: 67, 34 ng/mL in 2.5% wA non-fatty milk in PBST), starting at 80 nM with a 5-fold serial dilution, and incubated at room temperature for 40 minutes. After plate washing for 4 times, the antibody/TROP2-his protein mixtures were added to the antibody coated plates, 100 μl per well. After incubation at 37° C. for 40 minutes, plates were washed 4 times again using wash buffer. Then the plates were added and incubated with 100 μl Peroxidase Streptavidin (1:10000 dilution in PBST buffer. Jackson Immunoresearch, Cat #016-030-084) for 40 minutes at 37° C. Plates were washed again using wash buffer. Finally, TMB was added and the reaction was stopped using 1M H₂SO₄. The absorbance of each well was read on a microplate reader using dual wavelength mode with 450 nm for TMB and 630 nm as the reference wavelength, and the OD (450-630) values were plotted against antibody concentration. Data was analyzed using Graphpad Prism software and IC₅₀ values were reported.

human TROP2-his protein [4] = target: T1, human TROP2-his protein; assay: capture ELISA, captured antibody, biotin human TROP2-his in solution, OD(450-630)
[5] = target: T3, full length human TROP2 on 293F-TROP2 …; assay: FACS on 293F-TROP2 cells, MFI
human TROP2-his protein [6] = target: T1, human TROP2-his protein; assay: competitive ELISA: BM1 coated, antibody premixed with biotin human TROP2-his; blocked: binding of TROP2-his to coated BM1; partial only: OD falls from about 1.9 to a plateau of about 1.3
human TROP2-his protein [7] = target: T1, human TROP2-his protein; assay: capture ELISA, antibody captured on anti-human IgG Fc coat, biotin human TROP2-his in solution, OD(450-630)
Procedure: Plates were washed once with wash buffer (PBS+0.05% v/v Tween-20, PBST) and then blocked with 200 μl/well blocking buffer (5% w/v non-fatty milk in PBST) for 2 hours at 37° C. […] Plates containing captured anti-TROP2 antibodies were incubated with biotin-labeled human TROP2-his protein (prepared in house, SEQ ID NO: 67, 56.7 ng/mL in 2.5% w/v non-fatty milk in PBST, 100 μl/well) for 40 minutes at 37° C., washed 4 times, and incubated with streptavidin conjugated HRP (1:10000 dilution in PBST, Jackson Immuno Research, Cat #016-030-084, 100 μl/well) for 40 minutes at 37° C. After a final wash, plates were incubated with 100 μl/well ELISA substrate TMB (Innoreagents, Cat #TMB-S-002) at room temperature. The reaction was stopped in 3-10 minutes at room temperature with 50 μl/well 1M H₂SO₄, and the absorbance of each well was read on a microplate reader using dual wavelength mode with 450 nm for TMB and 630 nm as the reference wavelength. The OD (450-630) values were plotted against antibody concentration. Data was analyzed using Graphpad Prism software and EC₅₀ values were reported.
For the Capture ELISA, AffiniPure F(ab′)₂ Fragment Goat Anti-Human IgG, Fcγ fragment specific (Jackson Immunoresearch, Cat #109-006-008) was used instead of AffiniPure Goat Anti-Mouse IgG, Fcγ fragment specific, 100 μl/well.

| Binder | koff (human TROP2-his protein [1]) [s⁻¹] | kon (human TROP2-his protein [1]) [M⁻¹ s⁻¹] | koff [2] [s⁻¹] | kon [2] [M⁻¹ s⁻¹] | IC50 (human TROP2-his protein [3]) [nM] | EC50 (human TROP2-his protein [4]) [nM] | EC50 [5] [nM] | IC50 (human TROP2-his protein [6]) [nM] | Kd (human TROP2-his protein [1]) [nM] | Kd [2] [nM] | EC50 (human TROP2-his protein [7]) [nM] |
| --- | --- | --- | --- | --- | --- | --- | --- | --- | --- | --- | --- |
| B1 | ~4.7e-05 | 373000 | ~4.54e-05 | 483000 | 0.621 | 0.261 | 1.01 | 0.702 |  |  |  |
| B2 | 8.09e-05 | 525000 | 3.82e-05 | 678000 | 0.933 |  |  |  | 0.154 | 0.0563 |  |
| B3 | 0.000961 | 531000 | 0.000758 | 674000 |  |  |  |  | 1.81 | 1.12 |  |
| B4 |  |  |  |  |  |  | 1.14 |  |  |  | 0.316 |
| B5 | 6.45e-07 | 476000 | 9.44e-07 | 508000 |  | 0.117 | 0.636 |  | 0.00136 | 0.00186 |  |
| B6 |  |  |  |  |  |  |  | 0.353 |  |  | 0.054 |
